Substitutions are numbered along the chain they refer to. Numbers in names are those of the source.
T1: FcγRIIA^131H (human, UniProt P12318 34-217, biotin-labeled)
T1 construct: extracellular domain; Bought protein; also called RIIAH
T1 sequence (looked up): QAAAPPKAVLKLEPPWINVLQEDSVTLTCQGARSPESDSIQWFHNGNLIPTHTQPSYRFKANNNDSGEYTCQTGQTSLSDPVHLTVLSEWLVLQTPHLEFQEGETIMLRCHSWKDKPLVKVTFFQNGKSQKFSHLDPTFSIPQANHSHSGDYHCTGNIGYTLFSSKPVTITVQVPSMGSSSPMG

T2: FcγRIIA^131R (human, UniProt P12318 34-217, biotin-labeled)
T2 construct: extracellular domain; Bought protein; also called RIIAR
T2 sequence (looked up): T1 sequence (looked up) with H134R

T3: FcγRIIB (human, UniProt P31994 43-217, biotin-labeled)
T3 construct: extracellular domain; Bought protein; also called CD32b
T3 sequence (looked up): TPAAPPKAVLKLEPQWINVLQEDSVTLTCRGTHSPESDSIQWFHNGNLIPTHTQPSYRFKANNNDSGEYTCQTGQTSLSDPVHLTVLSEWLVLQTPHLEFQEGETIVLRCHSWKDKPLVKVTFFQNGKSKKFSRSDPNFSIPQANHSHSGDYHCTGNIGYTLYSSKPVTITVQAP

B1: anti-human OX40 IgG2 antibody Mut_22 (V266L/S267M/H268E/P271Q) (antibody, name in EU numbering)
heavy: QVQLQESGPGLVKPSGTLSLTCAVSGGSISSSIWWSWVRQPPGKGLEWIGEIHHSGNTNCNPSLKSRVTISIDKSKNQFSLKLTSVTAADTAVYYCARAGTGTTLDYWGQGTLVTVSSASTKGPSVFPLAPCSRSTSESTAALGCLVKDYFPEPVTVSWNSGALTSGVHTFPAVLQSSGLYSLSSVVTVPSSNFGTQTYTCNVDHKPSNTKVDKTVERKCCVECPPCPAPPVAGPSVFLFPPKPKDTLMISRTPEVTCVVVDLMEEDQEVQFNWYVDGVEVHNAKTKPREEQFNSTFRVVSVLTVVHQDWLNGKEYKCKVSNKGLPAPIEKTISKTKGQPREPQVYTLPPSREEMTKNQVSLTCLVKGFYPSDIAVEWESNGQPENNYKTTPPMLDSDGSFFLYSKLTVDKSRWQQGNVFSCSVMHEALHNHYTQKSLSLSPGK
light: EIVLTQSPGTLSLSPGERATLSCRASQSVSGDYLAWYQQKLGQAPRLLIYGASIRATGIPDRFSGSGSGTDFTLTISKLEPEDFAVYYCQQYGSSPLTFGGGTKVEIKRTVAAPSVFIFPPSDEQLKSGTASVVCLLNNFYPREAKVQWKVDNALQSGNSQESVTEQDSKDSTYSLSSTLTLSKADYEKHKVYACEVTHQGLSSPVTKSFNRGEC
notes: Substitutions in Eu numbering; entries include an unstated signal peptide
B2: anti-human OX40 IgG2 antibody Mut_24 (V266L/S267E/H268S/E269G/P271T) (antibody, name in EU numbering)
heavy: B1 heavy with M264E, E265S, E266G, Q268T
light: B1 light
notes: as for B1
B3: anti-human OX40 IgG2 antibody Mut_23 (V266L/S267E/E269K/P271G) (antibody, name in EU numbering)
heavy: B1 heavy with M264E, E265H, E266K, Q268G
light: B1 light
notes: as for B1
B4: anti-human OX40 IgG2 antibody Mut_25 (V234Q/V266L/S267D/H268D/E269D/P271Q) (antibody)
heavy: B1 heavy with V232Q, M264D, E265D, E266D
light: B1 light
notes: as for B1

What was measured:
FcγRI = biological target: T4, FcγRI (human, UniProt P12314 16-292, biotin-labeled); assay: ELISA, coated antibody, biotin-FcγR;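 as to Absorbance value: antibody coated at 2 µg/mL at 100 µL per well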
T4 construct: extracellular domain; Bought protein; also called CD64

FcγRIIA^131H = biological target: T1, FcγRIIA^131H; assay: ELISA, coated antibody, biotin-FcγR;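 as to Absorbance value: antibody coated at 2 µg/mL at 100 µL per well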
FcγRIIA^131R = biological target: T2, FcγRIIA^131R; assay: ELISA, coated antibody, biotin-FcγR;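 as to Absorbance value: antibody coated at 2 µg/mL at 100 µL per well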
FcγRIIB [1] = biological target: T3, FcγRIIB; assay: ELISA, coated antibody, biotin-FcγR;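 as to Absorbance value: antibody coated at 2 µg/mL at 100 µL per well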
FcγRIIIA^158F = biological target: T5, FcγRIIIA^158F (human, UniProt P08637 17-208, biotin-labeled); assay: ELISA, coated antibody, biotin-FcγR;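 as to Absorbance value: antibody coated at 2 µg/mL at 100 µL per well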
T5 construct: extracellular domain; Bought protein; also called RIIIAF

FcγRIIIA^158V = biological target: T6, FcγRIIIA^158V (human, UniProt P08637 17-208, biotin-labeled); assay: ELISA, coated antibody, biotin-FcγR;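 as to Absorbance value: antibody coated at 2 µg/mL at 100 µL per well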
T6 construct: extracellular domain; Bought protein; also called RIIIAV; CD16a 158V

FcγRIIB [2] = biological target: T3, FcγRIIB; assay: ELISA; relative affinity to FcγRIIB over that to FcγRIIA131R

T5 sequence (P08637 17-208): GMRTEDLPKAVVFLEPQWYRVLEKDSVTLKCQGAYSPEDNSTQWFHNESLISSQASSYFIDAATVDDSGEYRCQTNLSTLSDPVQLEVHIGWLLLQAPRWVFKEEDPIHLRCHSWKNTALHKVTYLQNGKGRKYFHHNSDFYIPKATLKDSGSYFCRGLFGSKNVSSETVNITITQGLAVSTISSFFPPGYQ
T4 sequence (P12314 16-292): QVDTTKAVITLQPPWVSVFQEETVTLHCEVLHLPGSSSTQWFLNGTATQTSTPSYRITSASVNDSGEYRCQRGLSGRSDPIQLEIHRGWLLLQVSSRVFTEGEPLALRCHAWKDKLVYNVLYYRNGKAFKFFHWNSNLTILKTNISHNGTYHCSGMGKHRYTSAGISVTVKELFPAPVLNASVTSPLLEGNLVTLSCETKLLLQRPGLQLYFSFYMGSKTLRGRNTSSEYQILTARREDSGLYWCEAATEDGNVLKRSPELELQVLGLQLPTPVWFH
T6 sequence (P08637 17-208 F176V): as the sequence (P08637 17-208) above, with F160V counted along it

| Binder | Absorbance value (FcγRI) | Relative binding affinity RI/G1 (FcγRI) | Absorbance value (FcγRIIA^131H) | Relative binding affinity RIIAH/G1 (FcγRIIA^131H) | Absorbance value (FcγRIIA^131R) | Relative binding affinity RIIAR/G1 (FcγRIIA^131R) | Absorbance value (FcγRIIB [1]) | Increased factor of RIIB binding compared with wild-type IgG2 (FcγRIIB [1]) | Relative binding affinity RIIB/G1 (FcγRIIB [1]) | Absorbance value (FcγRIIIA^158F) | Relative binding affinity RIIIAF/G1 (FcγRIIIA^158F) | Absorbance value (FcγRIIIA^158V) | Relative binding affinity RIIIAV/G1 (FcγRIIIA^158V) | RIIB/RIIAR (FcγRIIB [2]) |
| --- | --- | --- | --- | --- | --- | --- | --- | --- | --- | --- | --- | --- | --- | --- |
| B1 | 0.12 A650 | 0.05 ratio | 0.33 A650 | 0.57 ratio | 0.31 A650 | 1.17 ratio | 0.93 A650 | 12.3 fold | 1.22 ratio | 0.06 A650 | 0.33 ratio | 0.07 A650 | 0.07 ratio | 1.05 ratio |
| B2 | 0.12 A650 | 0.05 ratio | 0.48 A650 | 0.84 ratio | 0.35 A650 | 1.35 ratio | 1 A650 | 13.3 fold | 1.32 ratio | 0.08 A650 | 0.42 ratio | 0.08 A650 | 0.08 ratio | 0.98 ratio |
| B3 | 0.11 A650 | 0.04 ratio | 0.43 A650 | 0.75 ratio | 0.38 A650 | 1.44 ratio | 0.97 A650 | 13 fold | 1.29 ratio | 0.07 A650 | 0.35 ratio | 0.06 A650 | 0.06 ratio | 0.9 ratio |
| B4 | 0.12 A650 | 0.05 ratio | 0.06 A650 | 0.1 ratio | 0.3 A650 | 1.13 ratio | 0.86 A650 | 11.5 fold | 1.14 ratio | 0.07 A650 | 0.36 ratio | 0.05 A650 | 0.06 ratio | 1.01 ratio |

From patent US20230220042A1 (SHANGHAI JIAO TONG UNIVERSITY SCHOOL OF MEDICINE, published 2023)
